# Data reported in the supplement of paper PMC10567573.
# B1: BCL2L13 (parent)
# chain: QSLDQEILLKVKTEIEEELKSLDK
# Variants of: B1
# Experiment: protein stability index of a GFP-peptide fusion (GPS, HEK-293T) (PSI 1-6); higher = more stable
# Details: c terminus: a fixed tail appended
# 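Further: lentivirally expressed fusions sorted by FACS into six bins by GFP to DsRed ratio, PSI derived from sequencing read proportions per bin multiplied by bin number.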
row,Variant,protein stability index
1,NSLDQEILLKVKTEIEEELKSLDK [Q1N],4.98
2,QSLMQEILLKVKTEIEEELKSLDK [D4M],2.83
3,QSLFQEILLKVKTEIEEELKSLDK [D4F],2.34
4,QSLTQEILLKVKTEIEEELKSLDK [D4T],3.5
5,QSLLQEILLKVKTEIEEELKSLDK [D4L],2.79
6,QSLKQEILLKVKTEIEEELKSLDK [D4K],4.55
7,QSLAQEILLKVKTEIEEELKSLDK [D4A],4.27
8,QSLDQEILLKVKTEIEEELKALDK [S21A],4.83
9,QSLDQEILLKVKTEIEEELKPLDK [S21P],4.97
10,QSLDQEILLKVKTEIEEELKILDK [S21I],4.77
11,QSLDQEILLKVKTEIEEELKRLDK [S21R],4.42
12,QSLDQEILLKVKTEIEEELKLLDK [S21L],4.46
13,QSLDQEILLKVKTEIEEELKVLDK [S21V],4.73
14,QSLDQEILLKVKTEIEEELKQLDK [S21Q],4.86
15,QSLDQEILLEVKTEIEEELKSLDK [K10E],5.2
16,QSLDQEILLMVKTEIEEELKSLDK [K10M],3.09
17,QSLDQEILLFVKTEIEEELKSLDK [K10F],3.67
18,QSLDQEILLTVKTEIEEELKSLDK [K10T],4.84
19,QSLDQEILLYVKTEIEEELKSLDK [K10Y],3.85
20,QSLDQEILLWVKTEIEEELKSLDK [K10W],3.15
21,QSLDQEILLRVKTEIEEELKSLDK [K10R],3.09
22,QSLDQEILLCVKTEIEEELKSLDK [K10C],4.16
23,QSLDQEILLPVKTEIEEELKSLDK [K10P],5.4
24,QSLDQEILLHVKTEIEEELKSLDK [K10H],4.66

row,Variant,protein stability index
1,QSLDQEILLKVETEIEEELKSLDK [K12E],5.6
2,QSLDQEILLKVSTEIEEELKSLDK [K12S],4.61
3,QSLDQEILLKVDTEIEEELKSLDK [K12D],4.08
4,QSLDQEILLKVITEIEEELKSLDK [K12I],2.6
5,QSLDQEILLKVQTEIEEELKSLDK [K12Q],4.62
6,QSLDQEILLKVCTEIEEELKSLDK [K12C],4.43
7,QSLDQEILLKVVTEIEEELKSLDK [K12V],4.1
8,QSLDQEILLKVLTEIEEELKSLDK [K12L],2.13
9,QSLDQFILLKVKTEIEEELKSLDK [E6F],3.51
10,QSLDQGILLKVKTEIEEELKSLDK [E6G],4.78
11,QSLDQHILLKVKTEIEEELKSLDK [E6H],4.15
12,QSLDQRILLKVKTEIEEELKSLDK [E6R],3.67
13,QSLDQQILLKVKTEIEEELKSLDK [E6Q],4.56
14,QSLDQVILLKVKTEIEEELKSLDK [E6V],3.92
15,QSLDQTILLKVKTEIEEELKSLDK [E6T],4.62
16,QSLDQMILLKVKTEIEEELKSLDK [E6M],3.71
17,QSLDQPILLKVKTEIEEELKSLDK [E6P],5.35
18,QSLDQEILLKVKTEIEEELKSLDE [K24E],5.74
19,QSLDQEILLKVKTEIEEELKSLDY [K24Y],4.25
20,QSLDQEILLKVKTEIEEELKSLDG [K24G],5.12
21,QSLDQEILLKVKTEIEEELKSLDW [K24W],4.94
22,QSLDQEILLKVKTEIEEELKSLDP [K24P],5.06
23,QSLDQEILLKVKTEIEEELKSLDN [K24N],5.04
24,QSLDQEILLKVKTEIEEELKSLDR [K24R],4.53

row,Variant,protein stability index
1,QSLDQEILLKVKTEIEEELKSLDF [K24F],4.89
2,QSLDQEILLKVKTEIEEELKSLDM [K24M],3.67
3,QSLDQEILLKVKTEIEEELKSLDH [K24H],4.36
4,QSLDQEILLKVKTEIEEELKSLDT [K24T],4.79
5,QSLDQEILLKVKTEIEEELKSLDV [K24V],4.71
6,QSLDQEILLKVKTEIEEEKKSLDK [L19K],5.19
7,QSLDQEILLKVKTEIEEEPKSLDK [L19P],5.64
8,QSLDQEILLKVKTEIEEEAKSLDK [L19A],5.68
9,QSLDQEILLKVKTEIEEENKSLDK [L19N],5
10,QSLDQEILLKVKTEIEEEYKSLDK [L19Y],5.05
11,QSLDQEILLKVKTEIEEEEKSLDK [L19E],5.71
12,QSLDQEILLKVKPEIEEELKSLDK [T13P],5.34
13,QSLDQEILLKVKIEIEEELKSLDK [T13I],2.44
14,QSLDQEILLKVKCEIEEELKSLDK [T13C],3.28
15,QSLDQEILLKVKAEIEEELKSLDK [T13A],3.97
16,QSLDQEILLKVKVEIEEELKSLDK [T13V],3.58
17,QSLDIEILLKVKTEIEEELKSLDK [Q5I],2.95
18,QSLDWEILLKVKTEIEEELKSLDK [Q5W],3.67
19,QSLDVEILLKVKTEIEEELKSLDK [Q5V],3.62
20,QSLDPEILLKVKTEIEEELKSLDK [Q5P],4.4
21,QSLDSEILLKVKTEIEEELKSLDK [Q5S],4.51
22,QSLDCEILLKVKTEIEEELKSLDK [Q5C],4.67
23,QSLDYEILLKVKTEIEEELKSLDK [Q5Y],3.38
24,QSLDQEILLKVKTVIEEELKSLDK [E14V],3.48

row,Variant,protein stability index
1,QSLDQEILLKVKTFIEEELKSLDK [E14F],3.06
2,QSLDQEILLKVKTLIEEELKSLDK [E14L],2.82
3,QSLDQEILLKVKTKIEEELKSLDK [E14K],4.15
4,QSLDQEILLKVKTIIEEELKSLDK [E14I],2.92
5,QSLDQEILLKVKTEIEEELNSLDK [K20N],5.17
6,QSLDQEILLKVKTEIEEELWSLDK [K20W],4.91
7,QSLDQEILLKVKTEIEEELFSLDK [K20F],4.2
8,QSLDQEILLKVKTEIEEELTSLDK [K20T],5.09
9,QSLDQEILLKVKTEIEEELVSLDK [K20V],5.11
10,QSLDQEILLKVKTEIEEELISLDK [K20I],4.56
11,QSLDQEILLKVKTEIEEELLSLDK [K20L],4.56
12,QSLDQEILLKVKTEIEEELASLDK [K20A],5.08
13,QSLDQEILLKVKTEIEEELYSLDK [K20Y],4.3
14,QSLDQEILLKVKTENEEELKSLDK [I15N],5.58
15,QSLDQEILLKVKTEWEEELKSLDK [I15W],4.45
16,QSLDQEILLKVKTEVEEELKSLDK [I15V],5.08
17,QSLDQEILLKVKTEHEEELKSLDK [I15H],5.29
18,QSLDQEILLKVKTEGEEELKSLDK [I15G],5.61
19,QSLDQEILLKVKTETEEELKSLDK [I15T],5.76
20,QSLDQEILLKVKTEYEEELKSLDK [I15Y],4.88
21,QSLDQEILLKVKTEQEEELKSLDK [I15Q],5.46
22,QSLDQEILLKVKTESEEELKSLDK [I15S],5.72
